In the supplement of paper PMC10567573:

B1: TRIM35 (parent)
chain: PTCPVCKDRASPADLRTNHTLNNL
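Further: lentivirally expressed fusions sorted by FACS into six bins by GFP to DsRed ratio, PSI derived from sequencing read proportions per bin multiplied by bin number.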

Variants of: B1
Experiment: protein stability index of a GFP-peptide fusion (GPS, HEK-293T) (PSI 1-6); higher = more stable
Details: c terminus: a fixed tail appended
PTCPVCKDRASPADLRTHHTLNNL [N18H] gave a protein stability index of 2.94.
Work on PTCPVCKDRASPADLRTDHTLNNL [N18D] yielded a protein stability index of 3.4.
Work on PTCPVCKDRASPADLRTYHTLNNL [N18Y] yielded a protein stability index of 2.76.
PTCPVCKDRASPADLRTPHTLNNL [N18P] showed a protein stability index of 2.83.
For PTCPVCKDRASPADLRTKHTLNNL [N18K], the protein stability index was 2.48.
For PTCPVCKDRASPADLRTRHTLNNL [N18R], the protein stability index was 2.71.
For PTCPVCKDRASPADLRTGHTLNNL [N18G], the protein stability index was 3.03.
For PTCPVCKDRASPADLRTMHTLNNL [N18M], the protein stability index was 2.64.
In the case of PTCPVCKDRASPADLRTAHTLNNL [N18A], the protein stability index is reported as 2.67.
For PTCPVCKDRASPADLRTEHTLNNL [N18E], the protein stability index was 3.75.
Variant PTCPVCKDRASPADLRTTHTLNNL [N18T] has a protein stability index of 2.86.
In the case of PTCPVCKDRASKADLRTNHTLNNL [P12K], the protein stability index is reported as 2.83.
PTCPVCKDRASQADLRTNHTLNNL [P12Q] gave a protein stability index of 3.11.
In the case of PTCPVCKDRASTADLRTNHTLNNL [P12T], the protein stability index is reported as 2.96.
PTCPVCKDRASAADLRTNHTLNNL [P12A] showed a protein stability index of 2.46.
PTCPVCKDRASYADLRTNHTLNNL [P12Y] gave a protein stability index of 2.69.
PTCPVCKDRASLADLRTNHTLNNL [P12L] gave a protein stability index of 2.1.
PTCPVCKDRASWADLRTNHTLNNL [P12W] showed a protein stability index of 2.03.
In the case of PTCPVCKDRASHADLRTNHTLNNL [P12H], the protein stability index is reported as 2.61.
PTCPVCKDRASVADLRTNHTLNNL [P12V] showed a protein stability index of 2.85.
For PTCPVCKDRASNADLRTNHTLNNL [P12N], the protein stability index was 2.89.
PTCPVCKDRASFADLRTNHTLNNL [P12F] showed a protein stability index of 2.52.
With PTCPVCKDRASDADLRTNHTLNNL [P12D] the protein stability index was 3.5.
For PTCPVCKDRASEADLRTNHTLNNL [P12E], the protein stability index was 3.38.
With PTCPVCKDRASSADLRTNHTLNNL [P12S] the protein stability index was 2.95.
PTCPVCKDRASCADLRTNHTLNNL [P12C] showed a protein stability index of 2.58.
With PTCPVCKDRASMADLRTNHTLNNL [P12M] the protein stability index was 2.35.
Work on PTCPVCKDRASGADLRTNHTLNNL [P12G] yielded a protein stability index of 2.9.
PTCPVCKDRASIADLRTNHTLNNL [P12I] showed a protein stability index of 2.47.
For PTCPVCKDRASRADLRTNHTLNNL [P12R], the protein stability index was 2.36.
PTCPVCKDRASPADYRTNHTLNNL [L15Y] showed a protein stability index of 2.83.
PTCPVCKDRASPADPRTNHTLNNL [L15P] gave a protein stability index of 3.34.
Work on PTCPVCKDRASPADARTNHTLNNL [L15A] yielded a protein stability index of 3.35.
With PTCPVCKDRASPADMRTNHTLNNL [L15M] the protein stability index was 2.9.
In the case of PTCPVCKDRASPADFRTNHTLNNL [L15F], the protein stability index is reported as 2.66.
For PTCPVCKDRASPADTRTNHTLNNL [L15T], the protein stability index was 3.57.
PTCPVCKDRASPADNRTNHTLNNL [L15N] showed a protein stability index of 3.96.
In the case of PTCPVCKDRASPADGRTNHTLNNL [L15G], the protein stability index is reported as 3.87.
PTCPVCKDRASPADVRTNHTLNNL [L15V] gave a protein stability index of 3.67.
Variant PTCPVCKDRASPADERTNHTLNNL [L15E] has a protein stability index of 3.86.
With PTCPVCKDRASPADKRTNHTLNNL [L15K] the protein stability index was 3.21.
Work on PTCPVCKDRASPADCRTNHTLNNL [L15C] yielded a protein stability index of 4.23.
With PTCPVCKDRASPADWRTNHTLNNL [L15W] the protein stability index was 2.13.
With PTCPVCKDRASPADSRTNHTLNNL [L15S] the protein stability index was 3.57.
Variant PTCPVCKDRASPADQRTNHTLNNL [L15Q] has a protein stability index of 3.78.
PTCPVCKDRASPADRRTNHTLNNL [L15R] gave a protein stability index of 3.33.
With PTCPVCKDRASPADDRTNHTLNNL [L15D] the protein stability index was 3.73.
With PTCPVCKDRASPADHRTNHTLNNL [L15H] the protein stability index was 3.14.
With PTCPVCKDRASPADIRTNHTLNNL [L15I] the protein stability index was 3.
For PTCPVCKDRASPADLRPNHTLNNL [T17P], the protein stability index was 3.34.
Variant PTCPVCKDRASPADLRKNHTLNNL [T17K] has a protein stability index of 3.02.
PTCPVCKDRASPADLRFNHTLNNL [T17F] showed a protein stability index of 2.52.
In the case of PTCPVCKDRASPADLRLNHTLNNL [T17L], the protein stability index is reported as 2.58.
PTCPVCKDRASPADLRYNHTLNNL [T17Y] showed a protein stability index of 2.6.
PTCPVCKDRASPADLRHNHTLNNL [T17H] gave a protein stability index of 3.66.
Work on PTCPVCKDRASPADLRRNHTLNNL [T17R] yielded a protein stability index of 3.1.
PTCPVCKDRASPADLRVNHTLNNL [T17V] showed a protein stability index of 2.6.
PTCPVCKDRASPADLRDNHTLNNL [T17D] gave a protein stability index of 3.36.
Work on PTCPVCKDRASPADLRCNHTLNNL [T17C] yielded a protein stability index of 4.21.
PTCPVCKDRASPADLRNNHTLNNL [T17N] gave a protein stability index of 3.09.
Work on PTCPVCKDRASPADLRINHTLNNL [T17I] yielded a protein stability index of 3.07.
PTCPVCKDRASPADLRWNHTLNNL [T17W] showed a protein stability index of 2.35.
In the case of PTCPVCKDRASPADLRANHTLNNL [T17A], the protein stability index is reported as 2.75.
Variant PTCPVCKDRASPADLRENHTLNNL [T17E] has a protein stability index of 3.29.
PTCPVCKDRASPADLRMNHTLNNL [T17M] gave a protein stability index of 2.67.
In the case of PTCPVCKDRASPADLRQNHTLNNL [T17Q], the protein stability index is reported as 3.28.
Variant PTCPVCKDRASPADLRGNHTLNNL [T17G] has a protein stability index of 3.18.
Variant PTCPVCKDRASPADLRSNHTLNNL [T17S] has a protein stability index of 3.13.
For PTCPVCKDRAGPADLRTNHTLNNL [S11G], the protein stability index was 2.94.
PTCPVCKDRANPADLRTNHTLNNL [S11N] showed a protein stability index of 2.86.
In the case of PTCPVCKDRACPADLRTNHTLNNL [S11C], the protein stability index is reported as 3.74.
PTCPVCKDRAAPADLRTNHTLNNL [S11A] showed a protein stability index of 3.3.
PTCPVCKDRAKPADLRTNHTLNNL [S11K] gave a protein stability index of 3.32.
With PTCPVCKDRAFPADLRTNHTLNNL [S11F] the protein stability index was 2.55.
Work on PTCPVCKDRATPADLRTNHTLNNL [S11T] yielded a protein stability index of 3.04.
PTCPVCKDRAMPADLRTNHTLNNL [S11M] showed a protein stability index of 3.1.
In the case of PTCPVCKDRAYPADLRTNHTLNNL [S11Y], the protein stability index is reported as 3.11.
PTCPVCKDRAQPADLRTNHTLNNL [S11Q] gave a protein stability index of 3.07.
PTCPVCKDRALPADLRTNHTLNNL [S11L] gave a protein stability index of 3.07.
PTCPVCKDRAPPADLRTNHTLNNL [S11P] showed a protein stability index of 3.19.
Work on PTCPVCKDRAWPADLRTNHTLNNL [S11W] yielded a protein stability index of 2.51.
Work on PTCPVCKDRAEPADLRTNHTLNNL [S11E] yielded a protein stability index of 3.51.
In the case of PTCPVCKDRAHPADLRTNHTLNNL [S11H], the protein stability index is reported as 2.92.
PTCPVCKDRAVPADLRTNHTLNNL [S11V] gave a protein stability index of 3.1.
Work on PTCPVCKDRARPADLRTNHTLNNL [S11R] yielded a protein stability index of 2.72.
Work on PTCPVCKDRADPADLRTNHTLNNL [S11D] yielded a protein stability index of 3.44.
For PTCPVCKDRAIPADLRTNHTLNNL [S11I], the protein stability index was 2.97.
In the case of PTCPVCKDRASPADLRTNHHLNNL [T20H], the protein stability index is reported as 3.03.
Work on PTCPVCKDRASPADLRTNHELNNL [T20E] yielded a protein stability index of 3.92.
In the case of PTCPVCKDRASPADLRTNHGLNNL [T20G], the protein stability index is reported as 2.76.
Variant PTCPVCKDRASPADLRTNHFLNNL [T20F] has a protein stability index of 2.59.
PTCPVCKDRASPADLRTNHALNNL [T20A] showed a protein stability index of 3.11.
Work on PTCPVCKDRASPADLRTNHCLNNL [T20C] yielded a protein stability index of 3.
Work on PTCPVCKDRASPADLRTNHDLNNL [T20D] yielded a protein stability index of 3.76.
